Measurements taken from PMC5622069.
Values belong to the substance of their own block, whether it stands above or below them.

Tests used:
[1] = biological target: MnxG (Bacillus sp. PL-12); assay: native MS; surface-induced dissociation (SID) of the isolated 29+ Mnx complex at a low collision voltage of 40 V, ion mobility-MS; hexamer assigned after removal of most bound copper with EDTA
[2] = biological target: MnxF (Bacillus sp. PL-12); assay: as above

stoichiometry N (MnxG per hexamer) [1]: 1
Substance: MnxE3F3 hexamer (complex)

stoichiometry N (MnxE per MnxF (3:3)) [2]: 1 | stoichiometry N (MnxE per MnxG) [1]: 3
Substance: MnxE (natural protein)

stoichiometry N (MnxF per MnxG) [1]: 3
Substance: MnxF (natural protein)
